Targets include RBPJ (53–474) E260K (Mus musculus, UniProt P31266 53-474, E260K); RBPJ (53–474) V263A (Mus musculus, UniProt P31266 53-474, V263A); RBPJ (53–474) K275M (Mus musculus, UniProt P31266 53-474, K275M); RBPJ (53–474) Q333A (Mus musculus, UniProt P31266 53-474, Q333A).
Holding throughout (test): ITC
For orientation: In ITC the heat of successive injections is recorded.

The target in assay [1] is T1, human L3MBTL3 fragment 1–523 (human, UniProt Q96JM7-2 1-523).
T1 sequence (looked up): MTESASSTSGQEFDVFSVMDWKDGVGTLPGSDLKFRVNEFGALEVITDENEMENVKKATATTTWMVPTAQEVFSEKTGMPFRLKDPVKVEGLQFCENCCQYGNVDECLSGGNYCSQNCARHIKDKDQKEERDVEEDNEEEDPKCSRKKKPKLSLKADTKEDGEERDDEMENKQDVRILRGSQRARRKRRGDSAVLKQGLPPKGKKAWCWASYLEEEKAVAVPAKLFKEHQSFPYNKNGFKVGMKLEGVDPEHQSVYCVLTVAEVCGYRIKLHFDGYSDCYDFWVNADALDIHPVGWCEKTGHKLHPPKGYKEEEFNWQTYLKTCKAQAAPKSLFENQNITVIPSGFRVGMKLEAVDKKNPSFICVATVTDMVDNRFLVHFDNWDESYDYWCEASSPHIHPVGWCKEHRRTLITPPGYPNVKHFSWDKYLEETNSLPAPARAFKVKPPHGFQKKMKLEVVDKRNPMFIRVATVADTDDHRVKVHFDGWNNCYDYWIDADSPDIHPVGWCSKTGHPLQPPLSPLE

In assay [2] the target is T2, RBPJ (53–474) E260A (Mus musculus, UniProt P31266 53-474, E260A).
T2 sequence (P31266 53-474 E260A): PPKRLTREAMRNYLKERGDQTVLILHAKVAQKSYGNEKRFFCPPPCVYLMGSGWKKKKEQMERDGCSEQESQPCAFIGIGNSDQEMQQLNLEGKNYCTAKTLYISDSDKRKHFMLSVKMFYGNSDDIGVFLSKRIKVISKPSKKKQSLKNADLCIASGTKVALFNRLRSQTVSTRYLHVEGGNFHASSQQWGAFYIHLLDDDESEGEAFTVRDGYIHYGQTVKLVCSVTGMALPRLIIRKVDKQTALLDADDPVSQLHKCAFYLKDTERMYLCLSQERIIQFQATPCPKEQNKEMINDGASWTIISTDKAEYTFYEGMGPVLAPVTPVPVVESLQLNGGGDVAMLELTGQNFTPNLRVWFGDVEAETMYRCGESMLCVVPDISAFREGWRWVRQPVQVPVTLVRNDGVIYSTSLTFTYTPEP
The target of assay [3] is T2, RBPJ (53–474) E260A. The source holds these as a separate data set.

Chain of RBPJ (53–474) V263A (P31266 53-474 V263A): as the sequence (P31266 53-474 E260A) above, with A208E, V211A counted along it
Chain of RBPJ (53–474) Q333A (P31266 53-474 Q333A): as the sequence (P31266 53-474 E260A) above, with A208E, Q281A counted along it
Chain of RBPJ (53–474) K275M (P31266 53-474 K275M): as the sequence (P31266 53-474 E260A) above, with A208E, K223M counted along it
Chain of RBPJ (53–474) E260K (P31266 53-474 E260K): as the sequence (P31266 53-474 E260A) above, with A208K counted along it

B1: Mus musculus CSL (RBPJ), residues 53–474 (structural core domain), wild type, as used for ITC (domain or fragment)
chain: not shown
The Kd is the free concentration of one partner at which half of the binding sites on the other are occupied at equilibrium, for simple one-to-one binding. A low value points to tighter binding. In assay [1], B1 had a Ka of 540000 M⁻¹ and a Kd of 1.9 µM.

For MENVKKATATTTWMVPTAQ (peptide, UniProt Q96JM7-2 52-70, looked up) [L3MBTL3 (52–70) wild-type peptide (19-mer)], the dissociation constant Kd is 3.73 µM with RBPJ (53–474) E260A [2], 3 µM in the assay with RBPJ (53–474) V263A, 4.2 µM in the assay with RBPJ (53–474) K275M and 1.3 µM with RBPJ (53–474) Q333A. Further, the Ka with RBPJ (53–474) E260A [3] stood at 260000 M⁻¹; in the assay with RBPJ (53–474) E260K, 220000 M⁻¹; with RBPJ (53–474) V263A, 330000 M⁻¹; with RBPJ (53–474) K275M it was 240000 M⁻¹; with RBPJ (53–474) Q333A, 760000 M⁻¹. In addition, the dH with RBPJ (53–474) E260A [3] was -56.9 kJ/mol; with RBPJ (53–474) E260K it was -70.3 kJ/mol; with RBPJ (53–474) V263A, -43.1 kJ/mol; in the assay with RBPJ (53–474) K275M, -57.3 kJ/mol; with RBPJ (53–474) Q333A it was -44.4 kJ/mol.

For the origin of these results see paper PMC9825171 (Nucleic Acids Research, 2022).
